# Assay results as given in patent US20090035321A1, “Intercellular adhesion molecules and their binding ligands” (Boehringer Ingelheim Pharmaceuticals, Inc., published 2009).
# Biological target: ICAM-1 Y476/TAG (human) (UniProt P05362)
# Assay: COS cell adhesion to purified LFA-1, no antibody
substance,measurement,value
"purified LFA-1, bound to plastic (from UniProt P20701) (receptor)",% of Cells Expressing ICAM-1 that Bind LFA-1,20%
